Substrate in the data set: O=S1(=O)OC(c2ccc(O)c(Cl)c2)(c2ccc(O[C@@H]3O[C@H](CO)[C@H](O)[C@H](O)[C@H]3O)c(Cl)c2)c2ccccc21
Briefly: purified protein. The class given is biochemical, Pyrococcus furiosus. The following applies: 25 °C, PBS pH 7.4 (CPRG assay as described for screening; screening buffer contained 2.7% glucose).

Numbering of substitutions follows the chain as printed. Names and notes keep the numbering of the source.

B1: CelB (Pyrococcus furiosus) (protein)
chain: MKFPKNFMFGYSWSGFQFEMGLPGSEVESDWWVWVHDKENIASGLVSGDLPENGPAYWHLYKQDHDIAEKLGMDCIRGGIEWARIFPKPTFDVKVDVEKDEEGNIISVDVPESTIKELEKIANMEALEHYRKIYSDWKERGKTFILNLYHWPLPLWIHDPIAVRKLGPDRAPAGWLDEKTVVEFVKFAAFVAYHLDDLVDMWSTMNEPNVVYNQGYINLRSGFPPGYLSFEAAEKAKFNLIQAHIGAYDAIKEYSEKSVGVIYAFAWHDPLAEEYKDEVEEIRKKDYEFVTILHSKGKLDWIGVNYYSRLVYGAKDGHLVPLPGYGFMSERGGFAKSGRPASDFGWEMYPEGLENLLKYLNNAYELPMIITENGMADAADRYRPHYLVSHLKAVYNAMKEGADVRGYLHWSLTDNYEWAQGFRMRFGLVYVDFETKKRYLRPSALVFREIATQKEIPEELAHLADLKFVTRK
notes: homotetramer
As usually defined, the Km is the concentration of substrate that gives half-maximal velocity. As usually defined, the kcat is the maximal rate divided by the concentration of active sites. As for B1, the Km stood at 29.1 ± 1.9 µM and the kcat is 0.89 ± 0.04 s⁻¹.

B2: CelB (Pyrococcus furiosus; E365K/G72E) (protein)
chain: B1 chain with G72E, E365K
notes: homotetramer
In the case of B2, where the note is “variant AA10”, the Km stood at 19.3 ± 2.5 µM and the catalytic constant (kcat) came to 1.16 ± 0.10 s⁻¹.

B3: CelB (Pyrococcus furiosus; K436N/L412W/Y416H) (protein)
chain: B1 chain with L412W, Y416H, K436N
notes: homotetramer
For the protein B3, for the setting “variant W10”, the Km stood at 17.6 ± 3.6 µM and the kcat was determined as 1.15 ± 0.18 s⁻¹.
